From patent US20190071518A1 (PIERRE FABRE MEDICAMENT, published 2019)
Substitutions are numbered along the chain they refer to.

B1: enzymatically deglycosylated 1022C3 (antibody, V domains shown)
VH: QVTLKESGPGILQPSQTLSLTCSFSGFSLDTSGMGVSWIRQPSGKGLEWLAHIYWDDDKRYNPSLKSRLTISKDTSSNQVFLKITSLDTADTATYYCARRSHFGNYYYAMDYWGQGTSVTVTS
VL: DVQMTQTTSSLSASLGDRVTISCRASQDISSYLNWYQQKPDGTFKLLIFYTSRLQSGVPSKYSGSGSGTDYSLTISNLEQEDIAAYFCQQGKTLPLTFGAGTKLELK
notes: also called 1022C3 enzymatically deglycosylated
B2: murine monoclonal antibody 1022C3 (antibody, V domains shown)
VH: B1 VH with D30N
VL: B1 VL
modifications: N-glycosylated asparagine in CDR-H1
notes: Murine IgG from hybridoma I-4686, captured by anti-mouse antibody in the SPR assays; also called m1022C3; mAb 1022C3

How the values were obtained:
[1] = biological target: T1, ADAM17 on the surface of human tumour cells (A431 substrate-Nluc cells; NCI-H1299) (human, UniProt P78536 215-824); assay: flow cytometry on the tumour cell line NCI-H1299, antibody titration
T1 construct: Endogenous ADAM17 of human tumour cell lines; also called ADAM17 at the plasma membrane; tumour cell line NCI-H1299

[2] = biological target: T2, rhADAM10 (human, UniProt O14672); assay: ELISA on coated rhADAM10 (2.5 µg/ml), OD 450 nm
T2 construct: also called recombinant human ADAM10 (AD936, R&D Systems)
T2 sequence (recombinant ADAM10 polypeptide, looked up): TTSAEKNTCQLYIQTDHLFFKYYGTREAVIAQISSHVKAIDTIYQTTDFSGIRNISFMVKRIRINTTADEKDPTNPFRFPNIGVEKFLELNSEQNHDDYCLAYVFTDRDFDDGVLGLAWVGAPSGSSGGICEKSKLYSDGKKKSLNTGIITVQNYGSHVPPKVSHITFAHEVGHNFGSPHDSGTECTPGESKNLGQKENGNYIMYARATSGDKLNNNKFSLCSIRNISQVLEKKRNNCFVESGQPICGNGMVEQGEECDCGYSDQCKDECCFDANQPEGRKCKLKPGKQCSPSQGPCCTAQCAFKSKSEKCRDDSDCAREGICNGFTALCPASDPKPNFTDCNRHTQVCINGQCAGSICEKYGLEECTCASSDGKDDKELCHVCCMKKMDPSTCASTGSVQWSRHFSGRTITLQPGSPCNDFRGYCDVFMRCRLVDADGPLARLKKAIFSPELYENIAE
Experimental: The binding of 1022C3 to human ADAM17 and ADAM10 was determined by ELISA in comparison to the anti human ADAM10 antibody AB936 (R&D Systems). A ninety six well ELISA plate was coated with 100 μl/well of recombinant human (rh)ADAM17 (930-ADB, R&D Systems) at a concentration of 1 μg/ml or rhADAM10 (AD936, R&D Systems) at a concentration of 2.5 μg/ml in PBS. The coating solution was incubated overnight at 4° C. The plates were then blocked with PBS containing 0.5% gelatin (#22151, Serva Electrophoresis GmbH, Heidelberg, Germany) for 2 h at 37° C. The saturation buffer discarded by flicking plates, 100 μl of 1022C3 at a concentration of 1 μg/ml in PBS or 5 μg/ml of anti human ADAM10 polyclonal (AB936, R&D Systems) was added to the ELISA plates and incubated for 1 h at 37° C. After three washes, 100 μl horseradish peroxidase-conjugated anti human (A7164, Sigma) or anti goat (115-035-164, Jackson ImmunoResearch Europe Ltd) antibody solution diluted 1/5000 in PBS were incubated for 1 h at 37° C. After three washes, 100 μl/well TMB substrate (#UP664782, Uptima, Interchim, France) was added. After a 10 min incubation time at room temperature, the reaction was stopped using 1 M sulphuric acid and the optical density at 450 nm was measured (FIG. 7).

[3] = biological target: ADAM17 fragments and chimeric constructs giving the positive response; assay: SPR (Biacore X100), about 700 RU m1022C3 captured, analyte 250 nM, FC2-FC1
[4] = biological target: murine ADAM17 M1-671 (p-c-d-mpd) human Fc fusion (murine; human) (UniProt Q9Z0F8); assay: as above
[5] = biological target: murine/human chimeric ADAM17 M1-602H603-671 (p-c-d-mpd (Nter)-MPD (Cter)) human Fc fusion (murine; human) (UniProt Q9Z0F8); assay: as above
[6] = biological target: T3, human ADAM17 H603-671 (MPD (Cter)) human Fc fusion (human, UniProt P78536 603-671); assay: as above
T3 construct: not shown: human Fc domain at the C-terminus
Experimental: (§1) The experiment was performed on a Biacore X100 device. The 1022C3 is used as the ligand and the ADAM17 fragments and chimeric constructs are used as the analyte. The experiment is run at 10 μl/min at 25° C. on a rabbit anti-mouse polyclonal antibody (Mouse antibody capture kit, BR-1008-38, GE Healthcare) covalently linked to the matrix of both flowcells of a CM5 sensorchip (BR-1000-12) using the amine coupling kit (BR-1000-50, GE Healthcare), using the HBS-EP+ buffer (BR-1008-26, GE Healthcare) as the running buffer. This buffer is also used for the dilutions of the ligand and the analytes.
(§2) A solution of the 1022C3 at the concentration of 15 μg/ml is injected on the second flowcell (working surface) during 1 minute. At each cycle, one of the ADAM17 chimeric constructions (with a human Fc domain at the c-terminal positions) is injected at the concentration of 250 nM during 3 minutes on both flow cells: the reference without any 1022C3 (FC1) and the working cell with around 700 RU of m1022C3 (FC2). The registered signal corresponds to the difference between FC2 and FC1 responses.

[7] = biological target: T4, human ADAM17 H1-474 (P-C) human Fc fusion (human, UniProt P78536 18-474); assay: as above
T4 construct: Range as printed; not shown: human Fc domain at the C-terminus
Experimental: as §1, §2

[8] = biological target: T5, human ADAM17 H223-563 (C-D) human Fc fusion (human, UniProt P78536 223-563); assay: as above
T5 construct: not shown: human Fc domain at the C-terminus
Experimental: as §1, §2

[9] = biological target: T6, human ADAM17 H475-563 (D) human Fc fusion (human, UniProt P78536 475-563); assay: as above
T6 construct: not shown: human Fc domain at the C-terminus
Experimental: as §1, §2

[10] = biological target: T7, human ADAM17 H223-602 (C-D MPD (Nter)) human Fc fusion (human, UniProt P78536 223-602); assay: as above
T7 construct: not shown: human Fc domain at the C-terminus
Experimental: as §1, §2

[11] = biological target: T8, human ADAM17 H475-602 (D-MPD (Nter)) human Fc fusion (human, UniProt P78536 475-602); assay: as above
T8 construct: not shown: human Fc domain at the C-terminus
Experimental: as §1, §2

[12] = biological target: soluble ADAM17 (extracellular domain of ADAM-17) (human, UniProt P78536 215-671); assay: SPR (Biacore), antibody captured on rabbit anti-mouse IgG, soluble ADAM17 400-12.5 nM, 1:1 Langmuir fit
Experimental: The antibody (ligand) was bound to the second flowcell of a Biacore CM5 sensor chip (GE Healthcare) activated on both flowcells with a Rabbit anti-Mouse (RAM) IgG (H+L) covalently linked to the carboxymethyldextran matrix. Soluble ADAM17 (analyte) at concentrations ranging from 400 to 12.5 nM obtained by a two fold dilution scheme (assuming a molecular weight of 52 kDa) was injected onto the surface at a flow rate of 30 μl/min in a 120 s pulse (association) plus an extra 180 s delay for the dissociation phase measurement. The RAM surface was regenerated using NaOH 30 mM, NaCl 150 mM and 10 mM Glycine, HCl pH 1.5 buffer solutions. Curves obtained at each concentration were double referenced by first subtracting the signal from the reference FC1 surface (RAM without any mouse anti-TACE mAb) followed by subtraction of the signal obtained from a running buffer injection (Biacore HBS-EP buffer).
Data were processed using BIAevaluation 3.1 software using the 1:1 Langmuir model. The suitability of the fit was measured by the values of the Refractive Index (RI) which have to tend to zero and the κ² value.

soluble ADAM17 (extracellular domain of ADAM-17), sequence (P78536 215-671): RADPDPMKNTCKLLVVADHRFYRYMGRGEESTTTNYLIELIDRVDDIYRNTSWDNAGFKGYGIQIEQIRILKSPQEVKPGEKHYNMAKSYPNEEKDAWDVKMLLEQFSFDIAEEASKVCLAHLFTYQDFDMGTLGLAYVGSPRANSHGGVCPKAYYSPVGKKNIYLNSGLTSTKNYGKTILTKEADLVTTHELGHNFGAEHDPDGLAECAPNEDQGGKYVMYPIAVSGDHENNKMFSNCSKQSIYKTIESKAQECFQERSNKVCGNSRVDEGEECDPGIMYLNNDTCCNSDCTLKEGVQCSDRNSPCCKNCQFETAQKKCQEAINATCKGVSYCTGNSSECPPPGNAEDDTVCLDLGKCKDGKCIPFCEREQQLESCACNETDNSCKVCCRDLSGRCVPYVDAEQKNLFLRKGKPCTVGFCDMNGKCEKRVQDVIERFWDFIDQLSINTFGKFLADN
T1 sequence (P78536 215-824 limits assumed): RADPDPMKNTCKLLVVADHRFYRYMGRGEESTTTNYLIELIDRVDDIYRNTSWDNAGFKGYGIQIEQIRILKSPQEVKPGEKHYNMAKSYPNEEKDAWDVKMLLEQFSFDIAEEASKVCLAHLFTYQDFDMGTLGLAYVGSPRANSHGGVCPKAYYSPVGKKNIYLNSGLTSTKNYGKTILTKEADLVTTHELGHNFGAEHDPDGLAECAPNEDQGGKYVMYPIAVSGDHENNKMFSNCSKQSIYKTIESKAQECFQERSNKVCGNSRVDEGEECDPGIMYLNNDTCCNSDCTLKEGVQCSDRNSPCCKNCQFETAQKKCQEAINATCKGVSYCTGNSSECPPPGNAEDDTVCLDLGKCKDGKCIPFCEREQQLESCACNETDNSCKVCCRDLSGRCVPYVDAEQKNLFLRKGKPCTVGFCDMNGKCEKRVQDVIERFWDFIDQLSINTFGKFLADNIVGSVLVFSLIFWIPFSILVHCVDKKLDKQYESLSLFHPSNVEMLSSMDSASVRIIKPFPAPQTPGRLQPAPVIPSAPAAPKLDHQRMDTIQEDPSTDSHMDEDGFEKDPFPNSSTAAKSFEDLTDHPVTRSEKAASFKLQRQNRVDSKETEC
T5 sequence (P78536 223-563): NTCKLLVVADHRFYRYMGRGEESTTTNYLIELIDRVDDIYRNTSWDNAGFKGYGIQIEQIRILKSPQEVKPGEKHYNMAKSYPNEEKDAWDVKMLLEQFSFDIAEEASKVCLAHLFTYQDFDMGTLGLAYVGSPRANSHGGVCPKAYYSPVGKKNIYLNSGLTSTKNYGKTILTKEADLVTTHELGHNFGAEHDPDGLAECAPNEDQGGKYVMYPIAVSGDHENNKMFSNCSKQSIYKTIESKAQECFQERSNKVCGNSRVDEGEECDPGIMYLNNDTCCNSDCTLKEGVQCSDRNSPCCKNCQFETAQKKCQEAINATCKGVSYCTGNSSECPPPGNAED
murine/human chimeric ADAM17 M1-602H603-671 (p-c-d-mpd (Nter)-MPD (Cter)) human Fc fusion (murine; human), sequence (Q9Z0F8 other isoform, or with tags, fused parts or gaps mutant limits assumed, form in doubt): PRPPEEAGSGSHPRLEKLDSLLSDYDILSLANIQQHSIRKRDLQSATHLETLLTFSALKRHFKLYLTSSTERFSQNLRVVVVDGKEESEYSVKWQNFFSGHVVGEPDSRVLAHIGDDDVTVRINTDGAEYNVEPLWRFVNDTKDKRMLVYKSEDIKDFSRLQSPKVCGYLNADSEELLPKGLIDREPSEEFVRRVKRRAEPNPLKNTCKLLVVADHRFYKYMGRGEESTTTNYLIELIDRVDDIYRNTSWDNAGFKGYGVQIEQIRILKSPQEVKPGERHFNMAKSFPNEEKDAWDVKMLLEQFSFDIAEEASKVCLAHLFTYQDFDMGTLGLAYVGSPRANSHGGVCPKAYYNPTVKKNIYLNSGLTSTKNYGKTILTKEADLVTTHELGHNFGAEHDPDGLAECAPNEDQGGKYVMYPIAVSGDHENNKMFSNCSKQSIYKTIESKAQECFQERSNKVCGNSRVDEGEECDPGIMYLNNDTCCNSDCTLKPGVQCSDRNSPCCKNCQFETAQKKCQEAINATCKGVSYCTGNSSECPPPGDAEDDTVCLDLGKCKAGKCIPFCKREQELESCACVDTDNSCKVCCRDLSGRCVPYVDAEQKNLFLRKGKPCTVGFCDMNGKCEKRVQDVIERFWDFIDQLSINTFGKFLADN
T7 sequence (P78536 223-602): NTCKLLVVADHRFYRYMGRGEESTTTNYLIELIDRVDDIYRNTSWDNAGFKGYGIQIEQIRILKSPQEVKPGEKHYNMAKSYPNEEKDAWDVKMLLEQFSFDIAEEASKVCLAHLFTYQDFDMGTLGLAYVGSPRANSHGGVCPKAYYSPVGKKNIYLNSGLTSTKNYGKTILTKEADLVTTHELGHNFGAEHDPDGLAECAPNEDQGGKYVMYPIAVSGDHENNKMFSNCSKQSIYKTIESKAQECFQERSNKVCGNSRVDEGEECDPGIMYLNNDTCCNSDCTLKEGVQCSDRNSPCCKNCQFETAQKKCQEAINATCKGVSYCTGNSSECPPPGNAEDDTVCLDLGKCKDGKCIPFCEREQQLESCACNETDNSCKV
murine ADAM17 M1-671 (p-c-d-mpd) human Fc fusion (murine; human), sequence (Q9Z0F8 18-671 limits assumed, form in doubt): as the sequence (Q9Z0F8 other isoform, or with tags, fused parts or gaps mutant limits assumed, form in doubt) above, with D589N, R593P counted along it
T6 sequence (P78536 475-563): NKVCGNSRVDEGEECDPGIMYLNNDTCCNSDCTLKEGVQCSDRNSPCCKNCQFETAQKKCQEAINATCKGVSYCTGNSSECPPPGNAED
T8 sequence (P78536 475-602): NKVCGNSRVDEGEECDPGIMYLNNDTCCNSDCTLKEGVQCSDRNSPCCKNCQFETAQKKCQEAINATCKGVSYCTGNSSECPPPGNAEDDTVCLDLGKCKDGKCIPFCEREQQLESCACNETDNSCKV
T4 sequence (P78536 18-474): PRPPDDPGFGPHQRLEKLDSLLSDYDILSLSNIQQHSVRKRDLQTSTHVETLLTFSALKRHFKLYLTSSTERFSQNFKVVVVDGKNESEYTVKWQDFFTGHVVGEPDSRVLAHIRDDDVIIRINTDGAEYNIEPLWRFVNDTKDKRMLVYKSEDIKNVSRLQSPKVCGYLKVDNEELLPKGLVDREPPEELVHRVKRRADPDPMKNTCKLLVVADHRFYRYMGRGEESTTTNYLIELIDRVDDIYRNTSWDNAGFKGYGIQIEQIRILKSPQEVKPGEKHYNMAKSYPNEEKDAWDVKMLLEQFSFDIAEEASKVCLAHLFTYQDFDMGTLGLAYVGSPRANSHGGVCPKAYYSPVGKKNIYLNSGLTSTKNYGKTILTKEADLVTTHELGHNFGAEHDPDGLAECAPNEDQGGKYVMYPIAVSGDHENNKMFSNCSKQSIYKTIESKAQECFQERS
T3 sequence (P78536 603-671): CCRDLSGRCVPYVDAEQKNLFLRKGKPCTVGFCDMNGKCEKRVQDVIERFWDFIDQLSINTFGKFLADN

Row | Binder | EC50 (read off the curve) [1] [nM] | binding result [2] | response (RU) [3] [RU] | response (RU) [4] [RU] | response (RU) [5] [RU] | response (RU) [6] [RU] | response (RU) [7] [RU] | response (RU) [8] [RU] | response (RU) [9] [RU] | response (RU) [10] [RU] | response (RU) [11] [RU] | Kd [12] [nM] | koff [12] [s⁻¹] | kon [12] [M⁻¹ s⁻¹]
1 | B1 | ~0.5 | – | – | – | – | – | – | – | – | – | – | – | – | –
2 | B2 | ~0.5 | no binding (tested: 1 µg/ml) | 90 to 140 | < 10 | < 10 | < 10 | < 10 | < 10 | < 10 | < 10 | < 10 | 1.27 | 0.00036 | 284000
